This note sets out measurements from patent US20230091653.

Data set [1] relates to h00-37 (non-binding control antibody h00 conjugated with compound 37, mp-val-cit-PABC-MMAE).
In data set [2] the test system is h00-5 (non-binding control antibody h00 conjugated with compound 5, mp-D-Leu-Ala-Glu-PABC-MMAE).
The test system of data set [3] is h00-7 (non-binding control antibody h00 conjugated with compound 7, mp-Leu-Ala-Glu-PABC-MMAE).

Cathepsin B: the “percentage of drug cleaved from the heavy chain (3 h at 37 C, pH 4.5, QToF mass spectrometry)” value is “percentage of drug cleaved from the heavy chain of non-targeted ADCs 5 and 7 in vitro by Cathepsin B is similar to that found for non-targeted ADC 37” in data set [1]; “percentage of drug cleaved from the heavy chain of non-targeted ADCs 5 and 7 in vitro by Cathepsin B is similar to that found for non-targeted ADC 37” in data set [2]; “percentage of drug cleaved from the heavy chain of non-targeted ADCs 5 and 7 in vitro by Cathepsin B is similar to that found for non-targeted ADC 37” in data set [3].

Take neutrophil elastase: the “percentage of drug cleaved from the heavy chain (3 h at 37 C, QToF mass spectrometry)” value in data set [1] is given as “percentage of drug cleaved from the heavy chain of non-targeted ADC 5 in vitro by neutrophil elastase is lower than that found for non-targeted ADC 37”; in data set [2], “no proteolosis of h00-5 by neutrophil elastase was observed”; in data set [3], “the h00-5 conjugate ... has its heavy chain cleaved by neutrophil elastase to a significantly lower extent than h00-7”.
